Assay results published in patent US20170129940A1 (INSTITUTE FOR RESEARCH IN BIOMEDICINE, published 2017).

T1: hCMV UL128 (expressed in HEK293T cells) (human cytomegalovirus, UniProt P16837 28-171)
T1 sequence: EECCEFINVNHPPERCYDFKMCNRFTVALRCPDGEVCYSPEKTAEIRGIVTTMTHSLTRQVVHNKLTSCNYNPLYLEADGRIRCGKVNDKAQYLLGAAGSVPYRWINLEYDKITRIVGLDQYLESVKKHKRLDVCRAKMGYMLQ

B1: 6B4 (antibody, V domains shown)
VH: QVQLVESGGGVVQPGRSLRLSCAASGFRFNEFNMHWVRQAPGKGLEWVAVISIDGRHKYNADSVEGRFTISRDNSRNTLYLQMNSLRVEDTALYYCVTDGKAVDGFSGILEFWGQGTPVTVST
VL: EIVLTQSPATLSLSPGERATLSCWASQSVGGYLAWYQQKPGQAPRLLIYDASIRATGIPARFSGSGSGTHFTLTINSLEPEDFAVYYCQQRNNWPPLTFGGGTKVEIK
notes: human IgG; also called 6B4-biotin
B2: 15D8 (antibody, V domains shown)
VH: EVQLVQSGAEVKKPGESLKISCQASGYSFTNYWIAWVRQMPGKGLEWMGIIYPGDSDIKYSPSFRGQVTISADKSISNAFLQWRSLRASDTAMYYCARHAIRGDGFDYWGQGTLVTVSS
VL: SYELTQPPSVSVSPGQTATITCSGDKLGEKYACWYQQKPGQSPVLVMYQDTKRPSGIPERFSGSNSGNTATLTISGTRAMDEADYYCQAWDTNTVIFGGGTKLTVL
B3: 5F1 (antibody, V domains shown)
VH: AVQLVESGGGLAQPGRSLRLSCKVSGFTFSSYEMNWVRQAPGKGLEWIAYIDFTGSTIYYADSVKGRFTISRDTARNSLYLQMNKLRVEDTAVYYCVRDAGRWGTSWYYFDYWGQGTLVTVSS
VL: QSVLTQPPSVSGAPGQRVTISCTGLSSNIGAGYDIHWYQQIPGKAPKLLIYGNNNRPSGVPDRFSGSKSGTSVSLAITGLQAEDEADYYCQSYDSSLNGWVFGGGTRLTVL
notes: human IgG; also called 5F1-biotin
B4: 10C6 (antibody, V domains shown)
VH: AVQLVESGGGLAQPGRSLRLSCKVSGFSFSNFEMNWVRQAPGKGLEWIAYIDFTGSTIYYSDSVKGRFTISRDTARNSLYLQMNKLRVEDTAVYYCVRDAGRWGTSWYYFDYWGQGTLVTVSS
VL: QSVLTQPPSVSGAPGQRVTISCTGLSSNIGAGYDIHWYQQIPGKAPKLLIYGNNNRPSGVPDRFSGSKSGTSVSLAITGLQAEDEADYYCQSYDSSLNGWVFGGGTRLTVL
notes: human IgG; also called 10C6-biotin
B5: 8I21 (antibody, V domains shown)
VH: LVELVESGGGVVQPGRSLRLSCAASGFTFSSDGMHWVRQSPGRGLEWVAFISSDGSTPYYADSVKGRFTISRDNSKNTLYLQMNSLRAEDTAMYFCAKDWALFRWLRTFDHWGQGTLVTVSS
VL: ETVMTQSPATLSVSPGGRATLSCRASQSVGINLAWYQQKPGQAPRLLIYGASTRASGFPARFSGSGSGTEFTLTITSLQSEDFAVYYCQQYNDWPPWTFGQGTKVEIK

Assays:
[1] = target: T2, hCMV gB (expressed in HEK293T cells) (human cytomegalovirus, UniProt P06473 32-906); experiment: cell-based or functional assay
T2 sequence (P06473 32-906 limits assumed): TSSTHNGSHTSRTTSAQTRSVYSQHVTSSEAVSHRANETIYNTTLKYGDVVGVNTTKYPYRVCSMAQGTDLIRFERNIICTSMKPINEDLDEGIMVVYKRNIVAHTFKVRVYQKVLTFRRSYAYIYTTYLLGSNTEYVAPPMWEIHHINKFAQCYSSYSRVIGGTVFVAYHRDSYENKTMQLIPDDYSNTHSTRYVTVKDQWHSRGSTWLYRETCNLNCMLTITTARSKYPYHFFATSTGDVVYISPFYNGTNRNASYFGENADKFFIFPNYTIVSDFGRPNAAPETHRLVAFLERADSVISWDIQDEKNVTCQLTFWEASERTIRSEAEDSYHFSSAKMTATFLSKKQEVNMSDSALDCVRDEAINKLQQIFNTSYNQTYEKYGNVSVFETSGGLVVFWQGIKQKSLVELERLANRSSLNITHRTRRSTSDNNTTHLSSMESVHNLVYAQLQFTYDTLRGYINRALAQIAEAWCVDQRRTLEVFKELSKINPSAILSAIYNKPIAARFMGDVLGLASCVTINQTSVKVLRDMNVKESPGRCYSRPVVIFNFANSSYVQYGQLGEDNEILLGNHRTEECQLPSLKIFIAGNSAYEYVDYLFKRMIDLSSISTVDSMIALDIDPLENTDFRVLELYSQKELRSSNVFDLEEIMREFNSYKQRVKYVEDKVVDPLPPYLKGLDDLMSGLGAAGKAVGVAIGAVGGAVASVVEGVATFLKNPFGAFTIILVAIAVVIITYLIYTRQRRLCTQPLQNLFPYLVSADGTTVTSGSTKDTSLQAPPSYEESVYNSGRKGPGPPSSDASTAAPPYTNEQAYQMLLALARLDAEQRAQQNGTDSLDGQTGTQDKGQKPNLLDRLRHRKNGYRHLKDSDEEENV

[2] = target: T2, hCMV gB (expressed in HEK293T cells); experiment: cell-based or functional assay; remark: listed apart in the source
[3] = target: T2, hCMV gB (expressed in HEK293T cells); experiment: cell-based or functional assay; remark: listed apart in the source
[4] = target: T2, hCMV gB (expressed in HEK293T cells); experiment: competitor: 4H9-biotin; cell staining
[5] = target: T2, hCMV gB (expressed in HEK293T cells); experiment: competitor: 5F1-biotin; cell staining
[6] = target: T2, hCMV gB (expressed in HEK293T cells); experiment: competitor: 6B4-biotin; cell staining
[7] = target: T2, hCMV gB (expressed in HEK293T cells); experiment: competitor: 7H3-biotin; cell staining
[8] = target: T2, hCMV gB (expressed in HEK293T cells); experiment: competitor: 10C6-biotin; cell staining
[9] = target: T2, hCMV gB (expressed in HEK293T cells); experiment: competitor: 2B11-biotin; cell staining
[10] = target: T1, hCMV UL128 (expressed in HEK293T cells); experiment: cell-based or functional assay
[11] = target: T1, hCMV UL128 (expressed in HEK293T cells); experiment: cell-based or functional assay; remark: listed apart in the source
[12] = target: T3, hCMV gH + gL + UL128 + UL130 (co-expressed in HEK293T cells) (human cytomegalovirus, UniProt P12824 24-743; P16832 31-278; P16837 28-171; P16772 1-214); experiment: cell-based or functional assay
[13] = target: T3, hCMV gH + gL + UL128 + UL130 …; experiment: cell-based or functional assay; remark: listed apart in the source

Binder | 50% Neutralization ARPE [1] | 50% Neutralization MRC-9 [1] | 90% Neutralization ARPE [2] | 90% Neutralization MRC-9 [2] | 50% Neutralization BM-MSC [3] | 50% Neutralization Mo-DC [3] | Inhibition of binding (%) [4] | Inhibition of binding (%) [5] | Inhibition of binding (%) [6] | Inhibition of binding (%) [7] | Inhibition of binding (%) [8] | Inhibition of binding (%) [9] | 50% Neutralization ARPE [10] | 50% Neutralization MRC-9 [10] | 90% Neutralization ARPE [11] | 90% Neutralization MRC-9 [11] | 50% Neutralization ARPE [12] | 50% Neutralization MRC-9 [12] | 90% Neutralization ARPE [13] | 90% Neutralization MRC-9 [13]
B1 | ≤ 2 µg/mL | ≤ 2 µg/mL | 0.15 µg/mL | 1 µg/mL | 2 µg/mL | 0.11 µg/mL | 0% | 0% | 100% | 0% | 0% | 0% |  |  |  |  |  |  |  | 
B2 |  |  |  |  |  |  |  |  |  |  |  |  | < 0.001 µg/mL | > 2 µg/mL | 0.008 µg/mL | > 10 µg/mL |  |  |  | 
B3 | ≤ 2 µg/mL | ≤ 2 µg/mL | 0.1 µg/mL | 0.5 µg/mL | 0.3 µg/mL | 0.05 µg/mL | 100% | 100% | 0% | 0% | 100% | 100% |  |  |  |  |  |  |  | 
B4 | ≤ 2 µg/mL | ≤ 2 µg/mL | 0.2 µg/mL | 0.75 µg/mL | 0.3 µg/mL | 0.02 µg/mL | 100% | 100% | 0% | 0% | 100% | 100% |  |  |  |  |  |  |  | 
B5 |  |  |  |  |  |  |  |  |  |  |  |  |  |  |  |  | < 0.01 µg/mL | > 2 µg/mL | 0.03 µg/mL | > 10 µg/mL
